Data reported in article PMC11407386, “Streptococcus suis 5’-nucleotidases contribute to adenosine-mediated immune evasion and virulence in a mouse model” (Virulence, 2024).

Tested on: Nc1ncnc2c1ncn2[C@@H]1O[C@H](COP(=O)(O)O)[C@@H](O)[C@H]1O
Test: purified protein
Settings: 50 mM Tris-HCl, 5 mM MnCl2, pH 7.5, 37°C, 0.05 µM enzyme

| Substance | Km (0-500 µM AMP) [µM] | Km (0-2000 µM AMP) [µM] |
| --- | --- | --- |
| SntC (Streptococcus suis BM407) | 83.7 |  |
| SntA (Streptococcus suis BM407) | 13.67 |  |
| SntD (Streptococcus suis BM407) |  | 412.1 |
